Experimental data as given in publication PMC5383425, “Differential CLE peptide perception by plant receptors implicated from structural and functional analyses of TDIF-TDR interactions” (PLoS ONE, 2017).
Square brackets hold non-standard residues; d marks the D form. Ends that are not written are not given here. Hyp = O=C(O)[C@@H]1C[C@@H](O)CN1

Columns and labels:
[1] = biological target: T1, TDR-R421A/R423A double mutant (ecdTDR) (Arabidopsis thaliana, UniProt Q9FII5 30-642, R421A | R423A); assay: ITC
T1 sequence: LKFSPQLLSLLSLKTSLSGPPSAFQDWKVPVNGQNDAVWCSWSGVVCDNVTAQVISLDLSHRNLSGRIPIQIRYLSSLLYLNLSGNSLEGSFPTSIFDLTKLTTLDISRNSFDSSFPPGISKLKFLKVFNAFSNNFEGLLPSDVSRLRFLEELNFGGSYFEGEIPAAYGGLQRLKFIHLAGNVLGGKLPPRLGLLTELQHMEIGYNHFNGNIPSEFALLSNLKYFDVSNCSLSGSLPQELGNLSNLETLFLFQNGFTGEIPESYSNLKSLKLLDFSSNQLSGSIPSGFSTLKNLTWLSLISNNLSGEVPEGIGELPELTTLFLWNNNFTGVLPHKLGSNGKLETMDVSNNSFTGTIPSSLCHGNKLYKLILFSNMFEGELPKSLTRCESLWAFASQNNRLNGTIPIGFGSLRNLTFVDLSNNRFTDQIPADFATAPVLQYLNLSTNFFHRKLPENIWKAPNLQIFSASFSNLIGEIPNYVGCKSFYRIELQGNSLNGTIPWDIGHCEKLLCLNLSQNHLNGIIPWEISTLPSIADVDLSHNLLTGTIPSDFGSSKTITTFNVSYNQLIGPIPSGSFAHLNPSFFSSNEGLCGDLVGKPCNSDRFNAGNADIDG

[2] = biological target: T2, ecdTDR F281 alanine mutant (Arabidopsis thaliana, UniProt Q9FII5 30-642, alanine substitution of F281); assay: ITC
T2 sequence: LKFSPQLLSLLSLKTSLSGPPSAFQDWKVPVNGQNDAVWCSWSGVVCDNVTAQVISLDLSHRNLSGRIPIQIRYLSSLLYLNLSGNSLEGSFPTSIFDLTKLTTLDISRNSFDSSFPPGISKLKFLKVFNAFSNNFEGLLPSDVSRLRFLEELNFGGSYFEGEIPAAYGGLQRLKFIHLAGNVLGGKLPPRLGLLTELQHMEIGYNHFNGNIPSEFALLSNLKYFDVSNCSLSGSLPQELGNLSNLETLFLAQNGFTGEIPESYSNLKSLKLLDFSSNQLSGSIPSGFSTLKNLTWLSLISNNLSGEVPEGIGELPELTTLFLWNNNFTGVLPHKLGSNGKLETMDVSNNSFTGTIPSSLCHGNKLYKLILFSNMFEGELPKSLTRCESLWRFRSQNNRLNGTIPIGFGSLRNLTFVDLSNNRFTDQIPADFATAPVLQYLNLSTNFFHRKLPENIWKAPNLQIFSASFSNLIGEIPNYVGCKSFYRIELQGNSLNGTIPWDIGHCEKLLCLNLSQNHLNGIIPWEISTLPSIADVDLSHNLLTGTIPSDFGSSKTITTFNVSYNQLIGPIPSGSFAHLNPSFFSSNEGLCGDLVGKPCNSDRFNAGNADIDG

ecdTDR R423A mutant = biological target: T3, ecdTDR R423A mutant (Arabidopsis thaliana, UniProt Q9FII5 30-642, R423A); assay: ITC; 0.5–1 mM peptide titrated into 10–40 μM ecdTDR; 25°C; 10 mM sodium citrate, 100 mM NaCl, pH 5.5; fitted to one set of binding sites; MicroCal Auto-iTC200; conditions: both partners purified
T3 construct: TDR/PXY of A. thaliana, extracellular domain, residues 30-642; source: High Five insect cells (baculovirus), secreted, purified as the wild type (Ni-NTA, size-exclusion chromatography)
T3 sequence (looked up): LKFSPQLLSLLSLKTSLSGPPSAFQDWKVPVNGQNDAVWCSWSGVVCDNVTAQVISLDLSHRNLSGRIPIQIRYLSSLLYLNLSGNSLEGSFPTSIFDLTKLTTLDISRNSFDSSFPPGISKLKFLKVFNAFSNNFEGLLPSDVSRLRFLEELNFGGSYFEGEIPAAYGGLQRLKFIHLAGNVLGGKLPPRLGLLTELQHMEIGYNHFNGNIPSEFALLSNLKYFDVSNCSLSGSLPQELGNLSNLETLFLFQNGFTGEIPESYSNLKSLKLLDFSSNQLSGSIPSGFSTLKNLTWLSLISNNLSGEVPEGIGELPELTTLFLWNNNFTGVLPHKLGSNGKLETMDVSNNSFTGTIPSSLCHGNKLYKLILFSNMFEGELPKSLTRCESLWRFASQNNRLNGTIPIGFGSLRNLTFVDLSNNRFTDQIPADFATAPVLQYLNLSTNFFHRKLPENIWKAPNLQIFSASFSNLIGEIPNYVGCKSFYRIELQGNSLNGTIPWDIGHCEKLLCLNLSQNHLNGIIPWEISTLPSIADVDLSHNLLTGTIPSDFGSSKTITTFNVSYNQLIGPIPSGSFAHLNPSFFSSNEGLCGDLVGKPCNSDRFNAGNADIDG

ecdTDR S187A mutant = biological target: T4, ecdTDR S187A mutant (Arabidopsis thaliana, UniProt Q9FII5 30-642, S187A); assay: as above; conditions: both partners purified
T4 construct: TDR/PXY of A. thaliana, extracellular domain, residues 30-642; source: High Five insect cells (baculovirus), secreted, purified as the wild type (Ni-NTA, size-exclusion chromatography)
T4 sequence (looked up): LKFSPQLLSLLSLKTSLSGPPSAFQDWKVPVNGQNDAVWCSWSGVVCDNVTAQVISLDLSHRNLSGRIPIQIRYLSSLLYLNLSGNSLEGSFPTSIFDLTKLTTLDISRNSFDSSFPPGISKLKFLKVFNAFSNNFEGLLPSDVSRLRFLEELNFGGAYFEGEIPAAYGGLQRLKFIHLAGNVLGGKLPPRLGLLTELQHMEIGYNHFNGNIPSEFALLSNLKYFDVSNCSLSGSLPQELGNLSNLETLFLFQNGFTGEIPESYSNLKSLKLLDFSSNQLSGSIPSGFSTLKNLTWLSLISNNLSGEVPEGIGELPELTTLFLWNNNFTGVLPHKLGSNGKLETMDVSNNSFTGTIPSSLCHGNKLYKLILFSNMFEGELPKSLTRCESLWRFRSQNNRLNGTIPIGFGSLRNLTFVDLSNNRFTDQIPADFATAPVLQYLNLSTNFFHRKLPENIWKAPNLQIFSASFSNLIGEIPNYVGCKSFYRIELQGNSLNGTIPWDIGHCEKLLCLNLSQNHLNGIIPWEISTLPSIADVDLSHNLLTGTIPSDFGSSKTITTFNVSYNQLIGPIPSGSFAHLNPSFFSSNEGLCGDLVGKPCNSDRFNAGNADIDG

B1: Tracheary Element Differentiation Inhibitory Factor (TDIF) peptide (peptide)
peptide: HEV[Hyp]SG[Hyp]NPISN
notes: TDIF, the 12-residue CLE peptide processed from CLE41 and CLE44 of A. thaliana; printed as HEV(Hyp)SG(Hyp)NPISN; numbers count on: the 12-residue peptide; CLE44 encodes the same peptide; also called wild type TDIF; wtTDIF; source: synthetic peptide (peptide 2.0)
Kd [1]: 306 nM | Kd [2]: 787 nM | binding result (ecdTDR R423A mutant): binds | binding result (ecdTDR S187A mutant): binds
